Measurements reported in US6207816.
pIC50, pKd, pKi: −log10 of the molar value.

What was measured:
[1] = molecular target: T1, KGF (hKGF) (Homo sapiens) (UniProt P21781); experiment: filter; conditions: 2'-F pyrimidines
T1 sequence: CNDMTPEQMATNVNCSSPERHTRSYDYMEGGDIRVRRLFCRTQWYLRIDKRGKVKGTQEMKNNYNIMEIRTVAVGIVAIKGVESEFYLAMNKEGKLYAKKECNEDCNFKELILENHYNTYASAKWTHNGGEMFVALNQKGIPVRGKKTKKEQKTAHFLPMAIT

[2] = molecular target: T1, KGF (hKGF) (Homo sapiens); experiment: competition; conditions: 2'-F pyrimidines; for pIC50: PC-3 assay

## GGGAGGACGAUGCGGGAAUUCCCAGCGCUUGACUGAUACAAACNUUCCCGUGCCGCAGACGACUCGCCCGA [16F]
[1]; biphasic, high affinity 49%, Kd2 3.39 nM
  pKd: 9.08

## GGGAGGACGAUGCGGNGACUGAUUUUUCCUUGNBCAGUGUAAUUUCCUGGCUGCCCCAGACGACUCGCCCGA [38F (K38F)]
[2]
  pIC50: 9.22
[2]; PC-3 cells, 20 nM on NIH3T3/FGFR-2
  pKi: 9.66

## GGGAGGACGAUGCGGNGACUGAUUUUUCCUUGNBCAGUGUAAUUUCCUGGCUGCCCCAGACGACUCGCCCGA [38F]
[1]; DPBS, 37 C
  pKd: 9.48

## GGGAGGACGAUGCGGGAAUUAACAGGGCCAGAAUUCUCAUCUNNCUUCCCGUGACCCAGACGACUCGCCCGA [12F]
[1]; DPBS, 37 C
  pKd: 8.86

## GGGAGGACGAUGCGGCAANNNNNNNCUCUCUCCUGGCGUUCCGCAACCCGCCCCCAGACGACUCGCCCGA [19F]
[1]; second column 0.94-2.57
  pKd: 8.82

## GGGAGGACGAUGCGGGGACAAWYAGCGGUGUCUUUUCAUUUNKAUCCUCCGACRUCCCAGACGACUCGCCCGA [56F (K56F)]
[2]
  pIC50: 9.00

## GGGAGGACGAUGCGGGGACAAWYAGCGGUGUCUUUUCAUUUNKAUCCUCCGACRUCCCAGACGACUCGCCCGA [56F]
[1]; biphasic, 32% high affinity, Kd2 3.00 nM
  pKd: 10.15
